# Results taken from US20070054332A1, “Syndecan 1 ectodomain inhibits cancer” (priority 2005, published 2007).
# “Also recorded” adds a separate entry of the source.
# T1: αvβ5 integrin (Mus musculus, UniProt O70309+P43406)
# T1 construct: B82L mouse fibroblasts expressing this integrin; endogenous in cells; host or cells: B82L mouse fibroblasts
# T1 sequence (P43406 31-1044): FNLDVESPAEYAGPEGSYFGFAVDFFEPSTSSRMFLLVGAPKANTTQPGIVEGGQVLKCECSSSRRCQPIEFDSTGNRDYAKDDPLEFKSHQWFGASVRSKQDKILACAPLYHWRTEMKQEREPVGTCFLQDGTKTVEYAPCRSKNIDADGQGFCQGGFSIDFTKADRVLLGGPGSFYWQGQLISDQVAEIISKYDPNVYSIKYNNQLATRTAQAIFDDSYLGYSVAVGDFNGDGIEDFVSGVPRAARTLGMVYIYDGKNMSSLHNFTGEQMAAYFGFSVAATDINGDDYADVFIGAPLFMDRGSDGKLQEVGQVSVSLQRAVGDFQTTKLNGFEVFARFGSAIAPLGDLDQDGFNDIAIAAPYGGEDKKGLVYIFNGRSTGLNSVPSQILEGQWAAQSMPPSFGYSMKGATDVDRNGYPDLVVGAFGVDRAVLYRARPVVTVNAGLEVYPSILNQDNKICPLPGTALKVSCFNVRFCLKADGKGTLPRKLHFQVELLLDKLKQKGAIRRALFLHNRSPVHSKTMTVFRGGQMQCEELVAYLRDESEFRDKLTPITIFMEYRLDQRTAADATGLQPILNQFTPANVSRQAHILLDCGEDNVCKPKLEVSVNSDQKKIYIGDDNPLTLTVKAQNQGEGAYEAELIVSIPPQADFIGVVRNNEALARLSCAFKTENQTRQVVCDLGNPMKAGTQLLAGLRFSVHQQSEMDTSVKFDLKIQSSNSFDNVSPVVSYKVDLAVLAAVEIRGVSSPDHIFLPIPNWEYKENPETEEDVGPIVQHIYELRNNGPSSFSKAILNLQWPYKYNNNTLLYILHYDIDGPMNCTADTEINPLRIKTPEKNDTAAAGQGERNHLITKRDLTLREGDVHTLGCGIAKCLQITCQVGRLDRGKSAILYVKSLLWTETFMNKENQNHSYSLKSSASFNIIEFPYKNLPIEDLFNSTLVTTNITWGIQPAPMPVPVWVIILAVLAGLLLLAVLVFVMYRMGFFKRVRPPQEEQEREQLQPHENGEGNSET
# T1 sequence (O70309 24-798): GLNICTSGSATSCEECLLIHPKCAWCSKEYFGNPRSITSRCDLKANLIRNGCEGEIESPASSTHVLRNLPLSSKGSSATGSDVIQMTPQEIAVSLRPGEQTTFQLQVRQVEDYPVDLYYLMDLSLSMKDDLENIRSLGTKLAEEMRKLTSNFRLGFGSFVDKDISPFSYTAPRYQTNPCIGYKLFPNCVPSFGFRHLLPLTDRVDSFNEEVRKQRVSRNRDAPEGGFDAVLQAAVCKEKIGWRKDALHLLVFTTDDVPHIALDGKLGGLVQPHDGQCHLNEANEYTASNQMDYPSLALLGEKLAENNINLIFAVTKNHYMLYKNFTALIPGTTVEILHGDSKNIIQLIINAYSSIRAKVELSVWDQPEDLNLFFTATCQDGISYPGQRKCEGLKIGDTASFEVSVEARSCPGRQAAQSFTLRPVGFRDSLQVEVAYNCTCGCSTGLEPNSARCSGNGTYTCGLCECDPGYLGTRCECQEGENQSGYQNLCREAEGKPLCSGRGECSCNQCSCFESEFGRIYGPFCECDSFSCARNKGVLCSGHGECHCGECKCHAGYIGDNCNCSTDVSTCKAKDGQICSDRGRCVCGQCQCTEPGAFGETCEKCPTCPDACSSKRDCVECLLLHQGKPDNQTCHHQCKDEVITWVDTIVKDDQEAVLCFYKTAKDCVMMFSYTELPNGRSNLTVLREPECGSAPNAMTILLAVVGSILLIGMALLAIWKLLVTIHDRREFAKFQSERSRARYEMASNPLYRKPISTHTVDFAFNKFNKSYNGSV
# T2: Sdc1 and the αvβ5 integrin complex (Mus musculus, UniProt O70309+P43406)
# T2 construct: immunoprecipitation of Sdc1 from the B82L cells co-precipitates the integrin with the Sdc1; endogenous in cells; host or cells: B82L mouse fibroblasts
# T2 sequence (P43406 31-1044): T1 sequence (P43406 31-1044)
# T2 sequence (O70309 24-798): T1 sequence (O70309 24-798)
# B1: soluble syndecan-4 ectodomain: soluble syndecan-4 ectodomain, specificity control (protein, UniProt P31431 19-145, looked up)
# extracellular domain: ESIRETEVIDPQDLLEGRYFSGALPDDEDVVGPGQESDDFELSGSGDLDDLEDSMIGPEVVHPLVPLDNHIPERAGSGSQVPTEPKKLEENEVIPKRISPVEESEDVSNKVSMSSTVQGSNIFERTE
# modifications: extracellular domain
# notes: soluble syndecan-4 ectodomain, specificity control
# B2: free ectodomain: free ectodomain from culture medium of syndecan 1-transfected S115 or normal murine mammary gland cells, bearing heparan sulfate (Mali et al., 1994) (protein, UniProt P18828 23-255, looked up)
# extracellular domain: QIVAVNVPPEDQDGSGDDSDNFSGSGTGALPDTLSRQTPSTWKDVWLLTATPTAPEPTSSNTETAFTSVLPAGEKPEEGEPVLHVEAEPGFTARDKEKEVTTRPRETVQLPITQRASTVRVTTAQAAVTSHPHGGMQPGLHETSAPTAPGQPDHQPPRVEGGGTSVIKEVVEDGTANQLPAGEGSGEQDFTFETSGENTAVAAVEPGLRNQPPVDEGATGASQSLLDRKEVLG
# modifications: extracellular domain heparan sulfate
# B3: Soluble murine Sdc1 ectodomain: soluble murine Sdc1 ectodomain (Beauvais and Rapraeger, 2003) (protein, UniProt P18828 23-255, looked up)
# extracellular domain: B2 extracellular domain
# modifications: extracellular domain
# B4: recombinant Sdc1 ectodomain: recombinant Sdc1 ectodomain added at competing concentrations (McQuade et al., 2006) (protein, UniProt P18828 23-255, looked up)
# extracellular domain: B2 extracellular domain
# modifications: extracellular domain
# B5: mouse Sdc1: Full length mouse Sdc1 stably transfected into MDA-MB-231 cells (protein, UniProt P18828 1-311, looked up)
# chain: MRRAALWLWLCALALRLQPALPQIVAVNVPPEDQDGSGDDSDNFSGSGTGALPDTLSRQTPSTWKDVWLLTATPTAPEPTSSNTETAFTSVLPAGEKPEEGEPVLHVEAEPGFTARDKEKEVTTRPRETVQLPITQRASTVRVTTAQAAVTSHPHGGMQPGLHETSAPTAPGQPDHQPPRVEGGGTSVIKEVVEDGTANQLPAGEGSGEQDFTFETSGENTAVAAVEPGLRNQPPVDEGATGASQSLLDRKEVLGGVIAGGLVGLIFAVCLVAFMLYRMKKKDEGSYSLEEPKQANGGAYQKPTKQEEFYA
# modifications: full-length
# notes: Full length mouse Sdc1 stably transfected into MDA-MB-231 cells
# Experiments:
# [1] = system: MDA-MB-231 cell spreading; settings: soluble ectodomain, dose-dependent; cited from earlier work
# [2] = system: S115 mouse mammary tumor cells; settings: nanomolar concentrations; Mali et al. (1994); cited from earlier work
# MDA-MB-231 cell = settings: soluble ectodomain, dose-dependent; cited from earlier work
# αvβ5 integrin = molecular target: T1, αvβ5 integrin; settings: B82L mouse fibroblasts, competing concentrations; McQuade et al., 2006; cited from earlier work
# [3] = molecular target: T2, Sdc1 and the αvβ5 integrin complex; settings: B82L cells, competing concentration; McQuade et al., 2006; cited from earlier work
# [4] = system: MDA-MB-231 human mammary carcinoma cells; experiment: Rescue of proliferation in siRNA-treated cells by mouse Sdc1 constructs; assay type: cell-based; settings: MDA-MB-231, endogenous human Sdc1 silenced, mouse construct expressed
# Procedure: Full length mouse Sdc1 (FLmS1),GPI linked mS1ED (GPImS1ED) or a construct of mouse Sdc1 in which the heparan sulfate attachment sites are mutated (TDM) were stably transfected into MDA-MB-231 cells and selected with 1.5 mg/ml G418 (Gibco BRL). These stable transfectants were maintained in culture in the presence of G418 and were checked periodically for constant expression of FLmS 1, GPImS1ED or TDM. Cells expressing these transgenes at similar levels were sorted by FACS before the experiments. Cells transfected with the empty pcDNA3 vector (NEO) were used as control.
# Silencing of human Sdc1 with specific short interfering RNA (siRNA). Purified, duplexed siRNAs specific for human Sdc1 were purchased from Ambion (Austin, Tex.). The siRNA sequences targeting human Sdc1 were: hsdc1-1, […]; hsdc1-2, […]; hsdc1-3, […]. […]
# Assessment of Cell Growth. To quantify cell proliferation, cells grown in matrigel (3D culture) or on top of matrigel (2D culture) were released from the matrigel by 45-60 min incubation at 37° C. with Dispase (BD Biosciences), washed with Dulbecco's modified Eagle's medium (DMEM) 2-3 times and resuspended into 400 ul fresh DMEM for cell counting by hemocytometer. Triplicate wells, replicated in at least three experiments, were used for the quantification.
molecule,measurement,setting,value
B1,inhibition of MDA-MB-231 cell spreading,[1],fails to compete
B2,growth of S115 tumor cells,[2],suppress the growth
B3,inhibition of MDA-MB-231 cell spreading,[1],competitively inhibits
same,inhibition in short-term migration assays,MDA-MB-231 cell,competitively inhibits
B4,αvβ5 integrin activity,αvβ5 integrin,inactivated
same,co-precipitation of the integrin with Sdc1,[3],disrupted
B5,rescue of proliferation in siRNA-treated cells,[4],Rescue of proliferation; also recorded: rescues proliferation
